Series [1] addresses T1, HAT-HA-SpoVG (Staphylococcus epidermidis 1457, UniProt Q8CML1 1-102).
T1 sequence: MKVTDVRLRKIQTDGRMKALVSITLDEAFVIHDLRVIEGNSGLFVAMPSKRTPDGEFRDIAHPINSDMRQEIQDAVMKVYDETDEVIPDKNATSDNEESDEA
Put plainly: EMSA; 12 uM SpoVG, 2 mM Mg2+; 20 mM HEPES pH 8.0, 10 mM KCl, 2 mM MgCl2, 0.1 mM EDTA, 0.1 mM DTT, 50 ug/mL BSA, 10% glycerol; 200 fmol probe in 20 uL; 30 min room temperature; 2.5% agarose gel in cold TAE. The following applies: protein: recombinant; tags: N-terminal HAT-HA-linker; label: DYE682; blunt.

Series [2] deals with T1, HAT-HA-SpoVG. Put plainly: EMSA; 2-12 uM SpoVG, 2 mM Mg2+; 20 mM HEPES pH 8.0, 10 mM KCl, 2 mM MgCl2, 0.1 mM EDTA, 0.1 mM DTT, 50 ug/mL BSA, 10% glycerol; 200 fmol probe in 20 uL; 30 min room temperature; 2.5% agarose gel in cold TAE. The note with it: protein: recombinant; tags: N-terminal HAT-HA-linker; label: DYE682; blunt. (In general: In EMSA bound probe runs differently from free probe, usually more slowly.)

For series [3], the target named is T1, HAT-HA-SpoVG. The series is described as follows: competition EMSA; 10x or 20x excess over labeled icaA probe; 20 mM HEPES pH 8.0, 10 mM KCl, 2 mM MgCl2, 0.1 mM EDTA, 0.1 mM DTT, 50 ug/mL BSA, 10% glycerol; 200 fmol probe in 20 uL; 30 min room temperature; 2.5% agarose gel in cold TAE. The note with it: protein: recombinant; tags: N-terminal HAT-HA-linker; blunt.

B1: secA p control probe (dsDNA)
DNA 1: AGTATAATTTTCTAACTATAAATGATAAGATATATTGTTGTAGGCCAAACAGTTTTTTAGCTAAAGGAGCGAACGAAATG
DNA 2: CATTTCGTTCGCTCCTTTAGCTAAAAAACTGTTTGGCCTACAACAATATATCTTATCATTTATAGTTAGAAAATTATACT
Consider B1, for which the binding result with HAT-HA-SpoVG [1] is on record as “no binding”.

B2: icaA probe (dsDNA)
DNA 1: TAACAACATTCTATTGCAAATTGAAATACTTTCGATTAGCATATGCTTTACAACCTAACTAACGAAAGGTAGGTGAAAAA
DNA 2: TTTTTCACCTACCTTTCGTTAGTTAGGTTGTAAAGCATATGCTAATCGAAAGTATTTCAATTTGCAATAGAATGTTGTTA
For the molecule B2, in the series with HAT-HA-SpoVG [2], the binding result is given as “binds”.

B3: unlabeled icaA probe (dsDNA)
DNA 1: TAACAACATTCTATTGCAAATTGAAATACTTTCGATTAGCATATGCTTTACAACCTAACTAACGAAAGGTAGGTGAAAAA
DNA 2: TTTTTCACCTACCTTTCGTTAGTTAGGTTGTAAAGCATATGCTAATCGAAAGTATTTCAATTTGCAATAGAATGTTGTTA
For the molecule B3, in the series with HAT-HA-SpoVG [3], the binding result is “binds”.

The values are drawn from paper PMC8949118, “The Transcription Factor SpoVG Is of Major Importance for Biofilm Formation of Staphylococcus epidermidis under In Vitro Conditions, but Dispensable for In Vivo Biofilm Formation”.
